Source: a protein production outcome set (Wang et al. 2014)

Assay: label from the status in PepcDB records

| Sequence | protein production |
| --- | --- |
| MVTSSSMRRCRGALSLSFWIFLVLRSVLSRPVFGAAAGPAVQSARQCSASRGTGESDPPPFQPTLRLFPPSRRRRSYCRAMTPSRPSPDFPDGGFVQVRGARQHNLKDISVKVPRDALVVFTGVSGSGKSSLAFGTLYAEAQRRYLESVSPYARRLFNQAGVPDVDAIDGLPPAVALQQARGTPTARSSVGSVTTLSNLLRMLYSRAGDYPPGQGIVYAEGFSPNTPEGACPECHGLGRVYTVTEDSMVPDPSLTIRERAVAAWPQAWGGQNQRDILVTLGIDVDVPWRELPEETRHWILFTDEQPVVPVYPGLTPAETQRALKKKMEPSYMGTFSSARRHVLHTFANTESASMKKRVQGYMISEECPLCHGKRLRQEALNVTFAGLDITELSRLPLARVSELLRPYAEEREPGHAERVKNRPEQAIALQRMAADLVKRLDVLLHLGLGYLGLDRSTPTLSPGELQRLRLATQLYSNLFGVVYVLDEPSAGLHPADTEALLSALENLKRGGNSLFVVEHDLDVIRRADWLVDVGPEAGEKGGEILYSGPPEGLKHVPESQTGQYLFADRHTEPHTPREPAGWLELNGVTRNNLDNLDVRFPLGVMTSVTGVSGSGKSTLVSQALVDALAAHFGQPVNPDPEDDEDPADHTAGSARLGGDLAQITRLVRVDQKPIGRTPRSNMATYTGLFDQVRKLFAATPLAKKRGYNAGRFSFNVKGGRCEHCQGEGWVMVELLFLPSVYAPCPVCHGTRYNAETLEVEYRGKNIADVLALTVDEAHDFFADESAIFRALDTLREVGLGYLRLGQPATELSGGEAQRIKLATELQRSGRGGTVYVLDEPTTGLHPADVERLQRQLVKLVDAGNTVIAVEHKMQVVAASDWVLDIGPGAGEDGGRLVAQGTPAEVAQAAGSVTAPYLRAALRLEHHHHHH | failed |
| MVTVMRTLMPKIGRIAAKMTLCALCVAPMFSVQATELNWPEQPFRYYADNDSLKDLLNNFGANYRVSVSVSDKVNDRVSGRFTPEDPAEFLDYLAQVYNLMWYFDGAVLHVYKATETRSRLLQLELLTARELRSTLISTGVWDARYGWRAAENKGLVYLAGPPRYVELVVQTAEALESRLLQKSNSTDELFVELIPLKYASATDRSISYRDQSITVPGIASVLSRVVGGVQTQITDSASVQTSSVNGLPAEAAKPRGKTASVHGGATVEAEPGLNAIIVRDTQARLPLYRKLVAQLDQPQSRIEVALSIVDISANDLRQLGVDWRAGVSVGNNRIVDIKTTGDVDNGDVTLGSGQSFKSLLDSTNLNYLLAQIRLLESKGSAQVVSRPTLLTQENVEAVLNNSSTFYVKLVGKETAALEEVTYGTLLRIVPRIVGDRFATRPEINLSLHLEDGAKIPDGGVDDLPSVRKTEISTLATVKQGQSLLIGGVYRDEVSHQLRKVPLLGDIPYLGALFRSNTNTTRRTVRMFIIEPRIVVDGIGDSVLIGNEHDLRPSIGQLNNISNNSAEFKSVVEVFSCTSKTQAERYQQDLLSQQKSSLLTQCQLPSGQVGWRVKVAECDLSQAECVRPSEEP | failed |
| MVVLMLCAALLVIVGCPETALGKGLRRWLVDWPAKVLAGLTPARLVLLLALLAVSTLVVVLFEVEGAILLGMALPEVAVWFMAFDVAVFIDLFAAIALAANGARLKGLGDRIKALPRRFGRGLVARVRRSGQGRQGGRRFRRPGSGATKSEDGDAGWSGAAQPGALAWA | failed |
| MVVNKRLILILLFILNTAKSDELSWKGNDFTLYARQMPLAEVLHLLSENYDTAITISPLITATFSGKIPPGPPVDILNNLAAQYDLLTWFDGSMLYVYPASLLKHQVITFNILSTGRFIHYLRSQNILSSPGCEVKEITGTKAVEVSGVPSCLTRISQLASVLDNALIKRKDSAVSVSIYTLKYATAMDTQYQYRDQSVVVPGVVSVLREMSKTSVPASSTTNGSPATQALPMFAADPRQNAVIVRDYAANMAGYRKLITELDQRQQMIEISVKIIDVNAGDINQLGIDWGTAVSLGGKKIAFNTGLNDGGASGFSTVISDTSNFMVRLNALEKSSQAYVLSQPSVVTLNNIQAVLDKNITFYTKLQGEKVAKLESITTGSLLRVTPRLLNDNGTQKIMLNLNIQDGQQSDTQSETDPLPEVQNSEIASQATLLAGQSLLLGGFKQGKQIHSQNKIPLLGDIPVVGHLFRNDTTQVHSVIRLFLIKASVVNNGISHG | failed |
| MVYFYPINDSRWYTFIHLFLYCKALKLLVVPNSKGVSPIFNQITIHNQHTENWLIIGLFCGAFVTGADAFIISALLPAIATSLHVPTNTAAYGVTVYALCYAIGAPLFGPLGDRFNKRFLLIRGCGIFLLGTLLCGLANSLLTFYLYRAIAGIGAALFVPNIWAFIGTYFNGQRLNQVMGIVMSALSLSIATGVPLGALLAQLSSWHMAFWGSAMLTLIALSILTIAIPSLPSQNAQPDGYFTSFKTLVHTPHAIAALLITLTWMTGFYGVYTFLGVFATATFHFNTMQTGLIFITYGSANFVASFFAGKLISLLGKKQSVTINGLVSATLVLSLGIWGQHLAVLLIILVVLALSQGWGVTALTATIVNIVPSNRSTIMSFNSAFLYYGLTLGSAAGGLLLTKIGFYAVTIAAATALLVAVLIANALSHYSD | failed |
| MVYVDPDRFDELVAEALDGIPEEFARAMRNVAVFVEDEPDDPELLGLYVGIPLTERTTAYGGVLPDRIIIYRNTICALCETESEVIDEVRKTVVHEIAHHFGIDDERLHELGY | not failed |
| MWAFLVEQPNLPYTIAFACVLVLGVFEALALLIGLSMMSALDQWVPADVEYDADIGGSGLTGIAGWLCLNRLPLLIWFVLALTSFAIAGYLVNYISLMVSATLLPQLFTLPIAVVGSALSCRYLGRMLADLLPKNESTAISLDDLSGYVGTITLGCAIKGMPSEAVVRDKHQQKHYVLVEPETSGIEFASGTQVVLLKREGRVWSATRFDN | failed |
| MWAGMYPSQPDQVKSKPTYILNYFINPMTGSDILGLLMVYVYVAVLLLVSERFLGDRPNLSRKFVHIMVGNILFILPLFESRLVITFLAAAPFILITFLLSPYSPLRVKHRASSYGHGLGLVYYSISWTILAYLFFEAPWITGIGIAAMSYGDGFASLTGERFGRTTFSVLGDKKSLEGSLGMFIILLVMLPVVLTYYSQGFTPYLILGVALVSTVLEALTPRGLDNLTACFGAVAAYILLGGMGI | failed |
| MWIFFRFISGIYLKNFFIIFFSLLGFYCGIDLLLNFKDLPKAANLDLLYVMFLSFSAVPYVLPISLIFALVVSLISMIRANEFVSLYALGLSRNYVILFPFLWALFFCCIYIGLNFTSFAYANDYKRNILKNGTIMNQSGEVFLKFNNNFVYISKINNGQNSAQNIKIFNINDLNLSSFVSAKNAYFEGESWILRDGNITLLPKNYELANDGLKIQDFSELKSLEGFKPKIIEGVASNSDYSISDALESFELFKAQNVNTDALKINLYKFVFTPFFAPFLMLIMYYFFPVIARFFNLAIVTFMAFVVTLMIWGVLFLLTRLSENSVIASEIGIVVPIIILGCLSAYMYYKHR | failed |
| MWKCHRYMMSSHLHRQLDLINMEIKTIASGSKGNAYVISSGRSQLLIECGVNFDKIRKALNFDLSAVEACLISHEHGDHVAGVKKMLRTSSIKIYASEGTLSALNVPDSRQFILKEKDAQNIGEWIILPFQTEHDAKEPLGFMIQRHNERLLFITDSYFVRYKFKNINYLMIECNYSADILEENVINKVIHQVQKKRVLQSHFSLENVKEFLNANDLSQLREIHLLHISERNGDPERFKKEIQAMTGVPVYV | failed |
| MWKPLLIAVGLLSLVCGAIGVVLPVIPTTPFLLLSAFCFTRSSERLHNYLVSHRIFGEYISNYYNHAMTPQHKFRTLLTLWCGIILSCFLIGATIPWIILPLIATGVSIHIIRLKPRPEATPTASSPEADSGSEPHFADDHKA | failed |
| MWLLCDCLLCFPLSPEEFLTEILDLLELVFVILVVCEWKPKRFAGEFRLLMEQRVQLRVGTMETISNEGDVDREQVLETFGIENETGKETNGSRSFDVGYSSGDTLETLPKASKVDISPADVLKTLFFILVWYTFSTFLTLYNKTLLGDDLGKFPAPLLMNTIHFSIQAVLSKMITWYWSGRFQPDVTISWRDYFVRVVPTALGTAMDINLSNESLVFISVTFATMVSYFIYYVQICSPNISSSVCFCLQSPSLKLFGIISVISAGVLLTVAKETEFEFWGFVFVMLAAVMSGLKNPFIFMSCVAPVMAIATGLLSLLLDPWSEFRDNKYFDSGAHFARTCFLMLFGGALAFCMVLTEYVLVSVTSAVTVTIAGVVKEAVTIVVAVFYFHDEFTWLKGVGLMIIMVGVSLFNWYKYDKLQKGHKTEEEKQLQAPSQTGKYVILDEMDDQENSP | failed |
